Experiments:
Assay in all cases: BLI; Octet RED96; client biotinylated and loaded on streptavidin sensors; Spy or Spy variant in solution at 0.25, 0.5, 1, 1.5 and 2 μM; 40 mM HEPES, 150 mM NaCl, pH 7.5; Kd calculated as koff/kon
Settings in all cases: both partners purified
Spy_(27-124) = molecular target: T1, Spy_(27-124) (UniProt P77754 50-147)
T1 construct: source: E. coli BL21 (DE3), purified (Ni-NTA, cation exchange, SEC); not shown: His6, N-terminal, cleaved; SUMO, N-terminal, cleaved
T1 sequence (looked up): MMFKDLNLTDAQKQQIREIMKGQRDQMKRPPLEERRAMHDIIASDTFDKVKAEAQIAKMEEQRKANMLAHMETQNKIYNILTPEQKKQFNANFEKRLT
Summary of the method: (§1)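 Association was recorded with an Octet RED96 as streptavidin sensors carrying client proteins, biotinylated with EZ-link NHS-biotin at a 1:1 molar ratio, sat in 40 mM HEPES, 150 mM NaCl, pH 7.5 with 0.25 to 2 μM of the analyte protein (0.25, 0.5, 1, 1.5 and 2 μM). Dissociation followed after transfer to analyte-free buffer. Both wavelength-shift phases were fitted in SigmaPlot 12.0 to obtain koff and the observed association rate, whose dependence on analyte concentration yielded kon, with Kd defined as koff divided by kon.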

Spy_(1-124) = molecular target: T2, Spy_(1-124) (UniProt P77754 24-147)
T2 construct: source: E. coli BL21 (DE3), purified (Ni-NTA, cation exchange, SEC); not shown: His6, N-terminal, cleaved; SUMO, N-terminal, cleaved
T2 sequence (looked up): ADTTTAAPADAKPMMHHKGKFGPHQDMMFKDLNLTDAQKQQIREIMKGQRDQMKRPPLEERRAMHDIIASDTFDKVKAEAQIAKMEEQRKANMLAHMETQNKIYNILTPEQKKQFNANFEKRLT
Summary of the method: as §1

Spy_(21-130) = molecular target: T3, Spy_(21-130) (UniProt P77754 44-153)
T3 construct: Spy chaperone, residues 21-130; source: E. coli BL21 (DE3), purified (Ni-NTA, cation exchange, SEC); not shown: His6, N-terminal, cleaved; SUMO, N-terminal, cleaved
T3 sequence (looked up): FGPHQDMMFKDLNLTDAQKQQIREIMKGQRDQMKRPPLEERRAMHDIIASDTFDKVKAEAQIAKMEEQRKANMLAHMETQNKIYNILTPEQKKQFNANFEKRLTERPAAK
Summary of the method: as §1

Spy_(21-124) = molecular target: T4, Spy_(21-124) (UniProt P77754 44-147)
T4 construct: source: E. coli BL21 (DE3), purified (Ni-NTA, cation exchange, SEC); not shown: His6, N-terminal, cleaved; SUMO, N-terminal, cleaved
T4 sequence (looked up): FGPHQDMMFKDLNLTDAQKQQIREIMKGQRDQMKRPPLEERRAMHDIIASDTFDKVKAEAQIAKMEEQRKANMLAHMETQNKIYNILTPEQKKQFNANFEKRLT
Summary of the method: as §1

Spy_(24-130) = molecular target: T5, Spy_(24-130) (UniProt P77754 47-153)
T5 construct: Spy chaperone, residues 24-130; source: E. coli BL21 (DE3), purified (Ni-NTA, cation exchange, SEC); not shown: His6, N-terminal, cleaved; SUMO, N-terminal, cleaved
T5 sequence (looked up): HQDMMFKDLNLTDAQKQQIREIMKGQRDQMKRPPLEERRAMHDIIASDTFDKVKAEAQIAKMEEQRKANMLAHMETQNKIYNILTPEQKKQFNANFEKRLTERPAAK
Summary of the method: as §1

Spy_(24-127) [1] = molecular target: T6, Spy_(24-127) (UniProt P77754 47-150)
T6 construct: Spy chaperone, residues 24-127; source: E. coli BL21 (DE3), purified (Ni-NTA, cation exchange, SEC); not shown: His6, N-terminal, cleaved; SUMO, N-terminal, cleaved
T6 sequence (looked up): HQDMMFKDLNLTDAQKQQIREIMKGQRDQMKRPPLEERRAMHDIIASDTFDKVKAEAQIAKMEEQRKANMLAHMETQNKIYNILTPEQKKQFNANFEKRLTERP
Summary of the method: as §1

Spy_(27-130) [2] = molecular target: T7, Spy_(27-130) (UniProt P77754 50-153)
T7 construct: Spy chaperone, residues 27-130; source: E. coli BL21 (DE3), purified (Ni-NTA, cation exchange, SEC); not shown: His6, N-terminal, cleaved; SUMO, N-terminal, cleaved
T7 sequence (looked up): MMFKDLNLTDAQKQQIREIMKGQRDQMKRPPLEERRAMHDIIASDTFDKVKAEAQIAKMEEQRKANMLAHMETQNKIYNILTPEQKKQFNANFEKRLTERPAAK
Summary of the method: as §1

Spy_(24-127) [3] = molecular target: T6, Spy_(24-127); remark: listed apart in the source
Summary of the method: as §1

Spy_(27-130) [4] = molecular target: T7, Spy_(27-130); remark: listed apart in the source
Summary of the method: as §1

B1: Im7 H40W L53A I54A (natural protein)
chain: MELKNSISDYTEAEFVQLLKEIEKENVAATDDVLDVLLEWFVKITEHPDGTDAAYYPSDNRDDSPEGIVKEIKEWRAANGKPGFKQG
modifications: biotin (EZ-link NHS-biotin, 1:1 molar ratio of biotin to protein)
notes: Im7 (colicin E7 immunity protein) with H40W L53A I54A; Spy was made with an N-terminal His6-SUMO tag that was cleaved; also called Im7AAW; partially folded client; source: purified by a similar procedure to Spy
Kd (Spy_(27-124)): 283 nM | Kd (Spy_(1-124)): 930 nM | Kd (Spy_(21-130)): 2490 nM | Kd (Spy_(21-124)): 1820 nM | Kd (Spy_(24-130)): 1460 nM | Kd (Spy_(24-127) [1]): 1730 nM | Kd (Spy_(27-130) [2]): 297 nM | koff (Spy_(24-127) [3]): 0.39 s⁻¹ | koff (Spy_(27-130) [4]): 0.092 s⁻¹
